The assay deals with EphA2 receptor tyrosine kinase (human) (UniProt P29317). In words: cell-based or functional assay.

For the substance “DT390-ephrinA1 (from UniProt P00588 33-422)”, the cell proliferation assay, U-251 MG GBM cells was 15 nM.
